Results from patent US11945858B2, “Antibodies and antibody fragments against HNAV1.7 channel and their use in pain and cancer indications” (NATIONAL RESEARCH COUNCIL OF CANADA, priority 2018, dated 2024).
“Also recorded” adds a separate entry of the source.

Experiments:
CHO-3E7 = test: Cell-ELISA on live CHO-3E7 cells; type: cell-based, Chinese hamster; conditions: hybridoma supernatant, OD450 nm
Description: Cell-ELISA. Sterile 96-well plates (Costar #3595) were pre-treated with 50 μl/well of branched polyethyleneimine (PEI, Sigma Cat #408727) at 25 μg/ml in PBS for 30 min at room temperature. PEI was removed and CHO-3E7 or hNAv1.7-CHO (ChanTest cat #CT4003) were seeded at 6×10^5 cells per well in FreeStyle F17 Expression Medium (Gibco Cat #A1383501) and incubated overnight at 37° C., 5% CO2. Microplates were blocked with Starting block (Thermofisher Cat #37538) for 30 min at room temperature, and 50 μl of hybridoma supernatants were added and incubated at 4° C. for 3 h. Plates were washed 5 times with PBS and incubated for one hour at 4° C. with 50 μl of secondary antibody HRP-conjugated F(ab′)2 goat anti-mouse IgG (H+L) (Jackson Immunoresearch #115-036-062) diluted 1/5000 in blocking buffer. After 10 washes with PBS, 50 μl of TMB substrate solution (Pierce Cat #34021) was added and further incubated for 60 min at room temperature. Twenty-five μl/well of stop solution ([…] 1M) was added and OD450 nm measurements were done using a microplate reader (Spectramax 340 PC, Molecular Devices).

[1] = system: OD1-evoked Nav1.7-mediated spontaneous pain behaviours; type: in vivo, mouse; conditions: 100 μg, injected 60 minutes prior to OD1; 20 min after the injection
[2] = system: CFA-induced thermal hyperalgesia; test: Hargreaves Model of Hyperalgesia in rats; type: in vivo, rat; conditions: for Maximum percentage of the effect (% Effect; % MPE): time of maximum (1, 2 or 4 h)
Description: Hargreaves Model of Hyperalgesia in rats. Rats aged 4-6 weeks (weight range, 180-220 g) were used for intraplantar (ipl) administrations of various antibodies and evaluation of their efficacy in the Hargreaves model of inflammatory pain. Chronic inflammatory pain is induced by injecting a low volume (50 μl) of complete Freund's adjuvant (CFA; heat-killed M. tuberculosis—Sigma, St. Louis, Mo.—suspended in oil:saline 2:1 emulsion) into the right hind paw. The paw withdrawal latency in response to the application of a radiant stimulus onto the plantar surface of both right and left paw was measured using the plantar Analgesia Meter equipment for paw stimulation (IITC Life Science, Woodland Hills, Calif.). The time taken by the animal to respond by licking or flicking its paw is interpreted as positive response (paw withdrawal latency). After 48 h of the CFA injection, the baseline for latency paw withdrawal was measured and the mAbs tested. […] A cut-off time (20 sec) is established at the end of which the heat source shuts off automatically to avoid tissue damage. Animals were kept (randomized) one per cage and staff performing pain experiments are blinded to the content of injectable compounds. Percentage of maximum possible effect (% MPE) was calculated using the formula % MPE=(Test Latency−Baseline Latency)×100/(Cut-off−Baseline Latency).

hNav1.7 channels = hNav1.7 channels (Homo sapiens, UniProt Q15858, W1161R); test: Patch-clamp whole-cell recordings in hNav1.7-HEK293 cells; type: cell-based
[3] = system: overlapping antigen-peptides derived from DIE3IR; test: ELISA of mAbs on overlapping antigen-peptides derived from DIE3IR; type: binding, human; conditions: peptides coated 100-500 ng/well
Description: The peptides were custom-synthesized (Biomatik) and tested for antibody binding by ELISA. […] The wells were blocked with 1% BSA in TBS-T for 30 min and then incubated with 1:1000 dilution of anti-hNav1.7 mAb at room temperature (RT) for one hr. Following three TBS-T washes (3×5 min), mAb binding to peptides was detected by incubating with HRP-conjugated anti-mouse Fc antibody for 90 min at RT in TBS-T. The bound antibody was detected with SureBlue™ TMB reagent kit (KPL) by colorimetric measurement at 450 nm according to manufacturer's instructions.
To identify the epitope for mAb 3A8 on DIE3IR, seven overlapping antigen-peptides were generated (FIG. 15A) and an ELISA was performed to determine the binding between these peptides and the various mAb (FIGS. 15C to 15I).

glioblastoma U87MG cells = test: Soft agar assay, U87MG; conditions: mAb 1 μM
FC5DIE3IR [4] = molecular target: T1, FC5DIE3IR (Homo sapiens, UniProt Q15858); test: Surface Plasmon Resonance of mAbs, FC5DIE3IR; type: binding
T1 construct: The supernatant was collected and loaded on a 5 ml MabSelect™ SuRe™ column; made in house; host or cells: CHO-3E7 (transient, pTT5 vector), purified from supernatant
Description: (§1) Surface Plasmon Resonance of mAbs. FC5 and FC5DIE3IR proteins were SEC purified using a Superdex 75 column (GE Healthcare) connected to an AKTAPurifier (GE Healthcare) in HBS-EP+ running buffer (10 mM HEPES, pH 7.4, containing 150 mM NaCl, 3 mM EDTA and 0.05% P20) at a flow rate of 1 ml/min. Monomeric eluted peaks were used to flow over Fc-capture 3A8 mAb surfaces. To prepare the 3A8 mAb surfaces, approximately 6000 RUs of anti-mouse IgG (GE Healthcare) was first immobilized on CM5 Series S sensor chips (GE Healthcare) at pH 5.0, using standard amine coupling methods previously reported (Hussack et al., 2011) and according to the manufacturer's instructions (GE Healthcare). HBS-EP running buffer used for SPR experiments. The mAb 3A8 was captured on the anti-mouse IgG surface using 10 μg/ml of mAb, 30 sec contact time and flow rate of 10 μl/min. IMAC-purified DI-D VHH was passed through a Superdex 75 (GE Healthcare) column for SEC purification in HBS-EP buffer (10 mM HEPES, pH 7.4, containing 150 mM NaCl, 3 mM EDTA and 0.005% P20), connected to an AKTAPurifier (GE Healthcare) at a flow rate of 1 ml/min. Test binding experiments of FC5 control and FC5DIE3IR involved flowing 1 μM concentrations of SEC-pure material over the mAb surface at a flow rate of 30 μl/min for 5 min. Surfaces could be regenerated using 10 mM glycine, pH 1.7, with a 120 sec pulse at 20 μl/min. All SPR experiments were evaluated with Biacore T200 Software v 3.0. For kinetic analysis, single cycle kinetic analysis was used by flowing a range of FC5DIE3IR concentrations (320 nM-20 nM) at a flow rate of 30 μl/min, with 600 sec contact time and 1200 sec dissociation. Regeneration conditions were the same as above. Data were fit to a 1:1 binding model and analyzed using the Biacore T200 Software v3.0.
(§2) Surfaces were regenerated by washing with running buffer (HBS-EP). Data were analyzed with BIAevaluation 4.1 software as described (Hussack et al., 2011) and affinities determined using the steady state binding model.
(§3) Surface Plasmon Resonance (SPR) for monoclonal antibodies.

FC5DIE3IR [5] = molecular target: T1, FC5DIE3IR; test: Hydrogen-Deuterium Exchange Mass Spectrometry (HDX-MS); type: binding; conditions: labelling 1, 10 and 60 min
VHH FC5 = test: Surface Plasmon Resonance of mAbs, FC5 control; type: binding; conditions: SPR; 25 °C
VHH FC5, sequence (as listed by the source): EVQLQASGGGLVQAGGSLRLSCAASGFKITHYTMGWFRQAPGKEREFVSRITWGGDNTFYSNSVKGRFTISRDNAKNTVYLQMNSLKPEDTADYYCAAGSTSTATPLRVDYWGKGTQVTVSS
Description: as §1, §2, §3

[6] = system: ovarian cancer SKOV-3 cells; test: Soft agar assay, SKOV-3; conditions: mAb 1 μM; FIG. 24D
[7] = system: glioblastoma U87MGvIII cells; test: Soft agar assay, U87MGvIII; conditions: mAb 1 μM; FIG. 24C
[8] = −20 mV, after antibody application (1 μM)

B1: 2G11: anti-hNav1.7 mouse monoclonal antibody, IgG2a, k; heavy chain SEQ ID NO: 117, light chain SEQ ID NO: 119 (antibody, V domains shown)
VH: QVQLQQPGAELVKPGASVKLSCKASGYTFTTYWMHWVKQRPGQGLEWIGEINPSNGRANYNEKFKSKATLTVDKSSSTAYMQLSSLTSEDSAVYYCLRSLGYFDYWGQGTTLTVSSAKTTAPSVYPLAPG
VL: DVVMTQSPLSLPVSLGDQASISCRSSQSLVHSNGNTYLHWYLQKAGQSPKFLIYKVSNRFSGVPDRFSGSGSGTDFTLKISRVEAEDLGVYFCSQSTHVPYTFGGGTKLEIKRADAAPTVSIFPPSS
modifications: Heavy chain of the 2G11 antibody without leader sequence; Light chain of the 2G11 antibody without leader sequence
With B1 the “ELISA on live cells (duplicates) CHO-3E7” value (CHO-3E7; duplicate 1) was −0.027, the “ELISA on live cells (duplicates) CHO-3E7” value (CHO-3E7; duplicate 2) was −0.025 and the “Time spent in pain behaviors (saline plus OD1 = 100%)” value [1] was 63.47±4.78%. For the same molecule, the “Percentage of effect after injection (on left paw withdrawal)” value (“Percentage of effect after injection” below) ([2]; 100 μg intraplantar, 0 h) was 0%, the Latency paw withdrawal ([2]; 100 μg intraplantar, 1 h) was 8.80 ± 1.02 s and the “Percentage of effect after injection” value ([2]; 100 μg intraplantar, 1 h) was 27.98% ± 7.17. For the same molecule, the Latency paw withdrawal ([2]; 100 μg intraplantar, 2 h) was 7.86 ± 0.33 s, the “Percentage of effect after injection” value ([2]; 100 μg intraplantar, 2 h) was 22.02% ± 2.08 and the Latency paw withdrawal ([2]; 100 μg intraplantar, 4 h) was 8.45 ± 0.44 s. The “Percentage of effect after injection” value ([2]; 100 μg intraplantar, 4 h) was 25.80% ± 2.82, the “Maximum percentage of the effect (% Effect; % MPE)” value ([2]; 100 μg intraplantar) was 27.98±7.17% and the Latency paw withdrawal ([2]; intraplantar, mAbs 100 μg, 11E5 dose not stated, time not given) was 8.45 ± 0.44 s. The “Voltage-dependence of activation (shift V1/2 activation)” value (hNav1.7 channels; 1 μM) was −4.7 mV, the “Voltage-dependence of the steady-state fast inactivation (shift V1/2 inactivation)” value (hNav1.7 channels; 1 μM) was −13.9 mV and the “Onset time of the effect (exponential fit of the current decay, T)” value (hNav1.7 channels; 2 μM, single time-course recording of the figure) was 57 s. For the same molecule, the “Effect on hNav1.7 currents (in words)” value (hNav1.7 channels; example recordings, 1-3 μM) was “reduced the hNav1.7 currents”, the “Fast inactivation (time constant)” value (hNav1.7 channels; [8]) was 0.81 ms and the Time-to-peak (hNav1.7 channels; [8]) was 0.87 ms. The “Peptide in which the binding motif resides / that is bound” value [3] was “pep #40a”, the “Reduction of colony formation” value (glioblastoma U87MG cells; different experiment, FIG. 24B) was 60% and the “ka” value (FC5DIE3IR [4]) was 9560 M⁻¹ s⁻¹. For the same molecule, the “kd” value (FC5DIE3IR [4]) was 0.000526 s⁻¹, the “Rmax (RU)” value (FC5DIE3IR [4]; Fc-captured mAb, FC5-DIE3IR flowed, 25 °C) was 84 RU and the “Binding to FC5DIE3IR (comment, in words)” value (FC5DIE3IR [4]; SPR, 25 °C) was “strong and specific binding; also recorded: strongly and specifically bound”. The “Stabilization of FC5DIE3IR in response to mAb binding (residues, differential HDX-MS)” value (FC5DIE3IR [5]) was “Asn121-Tyr134” and the “Binding to FC5 control (comment, in words)” value (VHH FC5) was “did not bind; also recorded: No binding”.

B2: 1H5: anti-hNav1.7 mouse monoclonal antibody, IgG1, k; heavy chain SEQ ID NO: 121, light chain SEQ ID NO: 123 (antibody, V domains shown)
VH: EVKLVESGGGLVKPGGSLKLSCAASGFTFRSYAMSWVRQTPEKGLEWVASISSGGSTYYPDSVKGRFTISRDNAGNILYLQMSSLRSEDTAMYYCARGYDGYYERIWYYAMDYWGQGTSVTVSSAKTTPPSVY
VL: DIVMTQSQKFMSTSVGDRVTVSCKASQNVGTIVAWYQQKPGQSPKALIYSASYRFSGVPDRFTGSGSGTDFTLTISNVQSEDLAEYFCQQYNTYPLTFGSGTKLEIKRADAAPTVSIFPPSS
modifications: Heavy chain of the 1H5 antibody without leader sequence; Light chain of the 1H5 antibody without leader sequence
In the case of B2, the “ELISA on live cells (duplicates) CHO-3E7” value (CHO-3E7; duplicate 1) is reported as −0.014, the “ELISA on live cells (duplicates) CHO-3E7” value (CHO-3E7; duplicate 2) is reported as 0.029 and the “Time spent in pain behaviors (saline plus OD1 = 100%)” value [1] is reported as 73.84%±16.78. For the same molecule, the “Percentage of effect after injection” value ([2]; 100 μg intraplantar, 0 h) was 0%, the Latency paw withdrawal ([2]; 100 μg intraplantar, 1 h) was 7.97 ± 0.61 s and the “Percentage of effect after injection” value ([2]; 100 μg intraplantar, 1 h) was 21.85% ± 3.71. For the same molecule, the “Percentage of effect after injection” value ([2]; 100 μg intraplantar, 2 h) was 35.23% ± 0.88, the “Percentage of effect after injection” value ([2]; 100 μg intraplantar, 4 h) was 31.20% ± 5.18 and the “Maximum percentage of the effect (% Effect; % MPE)” value ([2]; 100 μg intraplantar) was 35.23±0.88%. For the same molecule, the “Reduction of colony formation” value [6] was 57%, the “Peptide in which the binding motif resides / that is bound” value [3] was “Pep #3” and the “Reduction of colony formation” value [7] was 60%. The “Reduction of colony formation” value (glioblastoma U87MG cells; FIG. 24A) was 37% and the “Binding to FC5 control (comment, in words)” value (VHH FC5) was “No binding”.
